According to publication PMC5320947 (Angewandte Chemie (International ed. in English), 2016):

Experiments:
[1] = system: fed blood glucose levels in C57BL/6J mice; type: in vivo
[2] = design: species or system mice; conditions: mouse, in vivo

In the case of “exendin–C–PMPC75k: exendin–4 C–terminal conjugate with zwitterionic PMPC, larger conjugate”, the “duration of blood glucose reduction after a single s.c. injection” value [1] is reported as “up to 3 days”.
In the case of green fluorescent protein [native GFP], the “area under the curve (AUC)” value [2] is reported as 14 %h/mL, the “terminal elimination phase T1/2β” value [2] is reported as 4 h and the “total body clearance (CL) rate” value [2] is reported as 7 mL/h.
